In the assay the target is IgE-GLT1-NP (IgE leader, lumazine synthase, linker, eOD-GT8; self-assembling 60mer nanoparticle) (Aquifex aeolicus lumazine synthase fused to HIV-1 gp120 fragment). Briefly: immunogold TEM of muscle sections from mice immunized with DNA-encoded IgE-GLT1-NP (VRC01 + anti-human 6 nm gold).

Where “and” joins values, the source holds several entries; their conditions need not be identical. Equal entries are not always repeated.

For VRC01 antibody (NIH AIDS Reagent), the visible copies of VRC01 binding was 11 copies and 17 copies.

The values above are taken from patent publication US20220047695A1.
